The values that follow come from article PMC9444977 (Cancer research, 2022).

In general, Kd refers to the free concentration of one partner at which half of the binding sites on the other are occupied at equilibrium, for simple one-to-one binding.

This experiment has as its target T1, FHH-tagged Siah1, recombinant purified (UniProt Q8IUQ4 1-282, labeled with RED-tris-NTA 2nd generation dye (Monolith His-Tag labeling kit)).
T1 sequence (looked up): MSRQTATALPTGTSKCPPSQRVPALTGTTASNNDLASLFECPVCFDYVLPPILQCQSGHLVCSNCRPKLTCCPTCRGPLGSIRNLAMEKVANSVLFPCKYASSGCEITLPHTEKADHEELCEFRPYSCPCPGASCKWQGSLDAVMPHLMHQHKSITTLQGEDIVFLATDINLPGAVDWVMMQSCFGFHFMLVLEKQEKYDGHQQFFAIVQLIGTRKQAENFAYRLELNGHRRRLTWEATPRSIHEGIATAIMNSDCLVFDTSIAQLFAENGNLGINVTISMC
Kind of experiment: MST.

B1: n-terminus FLAG-tagged CacyBP, recombinant purified (natural protein, UniProt Q9HB71 1-228, looked up)
chain: MASEELQKDLEEVKVLLEKATRKRVRDALTAEKSKIETEIKNKMQQKSQKKAELLDNEKPAAVVAPITTGYTVKISNYGWDQSDKFVKIYITLTGVHQVPTENVQVHFTERSFDLLVKNLNGKSYSMIVNNLLKPISVEGSSKKVKTDTVLILCRKKVENTRWDYLTQVEKECKEKEKPSYDTETDPSEGLMNVLKKIYEDGDDDMKRTINKAWVESREKQAKGDTEF
For the molecule B1, the Kd amounted to 9.8 µM.
